Consider 70 sequences from the domain aggregation screens of Martell et al. (2025).
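Also: 20 min heating vs room temperature control held 20 min.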

The data set is described as follows: soluble fraction after stress (log2 fold change); higher = more stays soluble; pooled small domains, quantitative proteomics. Particulars: stress: 75 degC.
On to “HMGSPVTAVMNRVLNETERQIVTLHVISGFKHREIAELLEKPVGTVLWTYNNALGKMRKAMQRE”, for which the “soluble fraction (log2)” value was -1.67.
Turning to “HMGSRRFGDSNHAAKLTEEQVVEIRELAAAGATTKFLAEMVGMHPNYVGLILRGLSWPEAGGPLRVA”, the “soluble fraction (log2)” value was 0.126.
For the sequence “HMGSVDMVYGDHKINSEHMDLSFKNQTAVLYDKVNYKSSLSMLSADKILVNFLNKYTKIEMNDENNNILIQ”, the “soluble fraction (log2)” value is 0.176.
Take “HMGSVNDNVQKLTSQIGETTETGDTITPEDVELYKKMVDPLSTMAQKLEAAEILKLKGIIGSNGIIV”: the “soluble fraction (log2)” value is -0.211.
With “HMGSWEDALKNWVDSALASGQKGILEQAVPKFERIMIETALTHTAGRRRDASLLLGWGRNTLTRKIKELGI”, the “soluble fraction (log2)” value was -0.383.
The value for “HMGTAESIRLFLSSGLIKGVGEALAGRIVDTFGTDTFDIIENHPELLAGVKGISHRLAMSIYESFSQHIGV” was -1.13; that for “HMGTDIGADKAAQTALADAGLSSSQVTGLRTKQDWDDGQLRYEVEFRAGGVEYDYELAADGTILKADRDT” was 0.17.
Regarding “HMGTEITEQRAKEIALENAKVAESDVTAMRVKKEMDDGVWRYDVEFYVQNKEYDYEINAMDGTILSVDYD”, the “soluble fraction (log2)” value is -0.00128.
Turning to “HMGTESFGARIRKIREARDWTPAALAEATGQTPEFVARVERDEVAPPVAFLLRLAAALGVDPSTF”, the “soluble fraction (log2)” value was -0.557.
Consider “HMGTGADKNSWTIGDKVKHRKWGTGTVVKVTGAGEDAELDIAFKSEGIKRLLAAFAPIEKVK”, for which the “soluble fraction (log2)” value was -0.165.
“HMGTHDAGTRFFDNLDSLLQNRDATRADVLAVYLLAVSLGFRGKHRSVSSAPQIAHYRNQAYVTLFQ”: the “soluble fraction (log2)” value is 0.737.
With “HMGTIEQAFKGKAPGSAHLYDRARAVLAGGVTHDTRIHAPFPIMVQRALGARKWDVDGNEYIDY”, the “soluble fraction (log2)” value was 0.064.
The value for “HMGTMKGFVDGSSVHLRSGPSLSESIRAKVVKGQTLYITERRGDWYRATVHGGGEGWIHTSLVKLAG” was -1.68; that for “HMGTPLYLLLAAEVRDRIATEQLAPHTAVPSERELAELHGVSRMTARQALALLESEGLVYRNPPRGTFVAE” was -1.15.
For the sequence “HMGTQIKSPMPGTILDVRVNVGDTVKEGDILMILEAMKMENEILAPVSGKVAAIQVSKGTAVNSGDLLAVL”, the “soluble fraction (log2)” value was -0.0689.
Next, “HMGTRHPLPYAYARANTVLLEDDGDRLVLWAPENVSLTALGEVLRRFDVDALERESSSTLANRIAVAYAG”: -0.774; “HMGTTLTKIPGIGENRARLLLRHFGSLRAVREADADALAAVKGMTRPAAEAIVRYFEQQDAEGRRD”: 0.282; “HMGTTTPPATRKGKVTSSFLNVRSGPSTANAKVAELKQNAVVTIYETSSNGWHRIGVNQWVIGTNIQE”: -1.2.
Next, “HMGTVSSGSSSTDTPFSLGEIVRHKVFGEGVVLSIEGQGDASRIQINFNTAGTKWLVTAYADLEK”: -1.09; “HMGTVVKRNALVHAWTEFNGGRASTKLLALGPGKVGEWIELENPQSGRKLRGEVQVDGSVRLG”: 0.0593.
As to “HMGTWKKIGTMTATVNDLYVRETPNGYIMGFINKGTVVEVDGKTTGKWTHAKVEGIGVGWIWTGYLDK”, the “soluble fraction (log2)” value was -3.17.
Take “HMGTYYTEIIAQLKKEIANGTWKLGERLPGELALAKQFNVSRSSIREALKALAYAGIVESKPGRGTFLLHV”: the “soluble fraction (log2)” value is -1.5.
Next, “HMGVAAEDPDEAEKGAHSLKSSAANVGAEVVRGLAGEIESAASSGDVEAVRTILPGLEDAYSQAITDLET”: 0.266.
Next, “HMGVDMGPAKYVGQKALTATEMRPAGKIQIGQTVFDAVSVGPFIGARKAVKVIKYENAQLYVEPE”: -0.415.
The value for “HMGVEVEVPNVKGKLVADAEYELGLAQLTPVRTDSAYNRNLPPGTVLEQLPASGSHVKEGREIYLTINST” was 0.284; that for “HMGVGERIKARRKEIGLSAEQVAKELGVSPATVYRYESNDIMNMRIDKLEPIAKALHTTPAYLMGWE” was -0.0856; that for “HMGVGVKSTEVDYQRTSSGSDIPTDDAAWTKTIPAVKVNTFLWTRTKINYTDGTSAIFYSVGY” was -3.05.
With “HMGVGVPVTLLLEKLGEDTLSAQQIMERLGLKSRASFRKVYLVPALEQKLIEMEFPDKPNSSKQRYRR”, the “soluble fraction (log2)” value was -0.859.
The value for “HMGVISRVITFWQNGFTVDDGPLRAFDDPANMAFMESIGRGEAPAELAPKTRTQRVNINLVQRHEPYSAPK” was -0.147.
In the case of “HMGVITVRPPIVVRDFAIALNLKPFQVIGNLMELNKVVSVSSVIEEADARKVAERHGYTLEIRH”, the “soluble fraction (log2)” value is -1.67.
For the sequence “HMGVMNEYEELRDRYLTGQIWKIGDLVEAKGIEGKIIQRGTNYITFNDSQGKVHKAWLHEIKV”, the “soluble fraction (log2)” value is -0.00315.
“HMGVNNDIIKHRKLEFMIEMLPDTFTRKEANEIGEGLGISLATLTRYLSSDAFERTGHGRYRKKD”: the “soluble fraction (log2)” value is -1.35.
The value for “HMGVPTEQEIGKRILAWRKLRGMTLQQLADKAGVGLTTIHNLETGLWYAKMPTYLYIAEALGVSLDALIYG” was -1.76; that for “HMGVPVTAPMPGKVLKVTVSVGAAVKNGDLVLVLEAMKMENEIFATANGVVKEIRSREGDTVNSGDVMMVI” was -2.19; that for “HMGVRPAALGFQKVRIEPQVGTFREASGDVITPRGLIHAEWKRDEENALHLHYTLPDGVAYA” was -0.0752.
The value for “HMGVSDDMARGVVRARQFLSDFAAVPLDRMTPAEAVARARQLKSELETDAKHSPWLLDVLSNA” was -0.116; that for “HMGVSEIGSPAWMESKLVTLASYEGSLDGLRTLWGGVAQHRARIPVESWDRLFAAKEEGKARLVKLGRT” was -1.25.
With “HMGVSLREVPVAEHGDWIGRPIKELGIPAEVLIVLVRRADGTTVVPKGGTVLQQGDMLVVNEWEE”, the “soluble fraction (log2)” value is -1.16.
Consider “HMGVTDSSYNVLRRQILEMLSVQQRTPADLARLIEADKEEIAAVIRFLLDKGEIQMEDGMLQTK”, for which the “soluble fraction (log2)” value was -0.821.
Regarding “HMGVVEEVAADFEGRAVVGKVDVDEQTELARRFGIMSIPTLVVMKGGKVVEQAVGARGKADIAAMLERH”, the “soluble fraction (log2)” value is 0.183.
Take “HMGYINLNVKVSPEWRDFWRSAYASVVAGYHQNKEHWNTIILDGSIPDKDIKRMIAESYDLVSD”: the “soluble fraction (log2)” value is -0.561.
The value for “HMGYLNDRQRLIKDFITENQPLKVSDLVKQFPNIGLSTLKKDLQYLRGEQVLTMIGKGKGSVYVLNKK” was -0.975; that for “HMGYNDQEVKSNLITLLSTSKTGLSGVEISAQLGINRVTMTKFLNVFAAEGIIKQKNIGNLNLWLVEEGTE” was -3.44; that for “HMGYTTSFVVQLKNAVSISFDEIDQNLRKLPGVEDVVIVEEAAMAYLKVDRQHFREEQLAHFEFVRQ” was -1.99.
Consider “HMGYVQLTAREKEVLQGLVDGASYKMIAAKLDIRFGTVHTHVKNIYEKLHVNSASEAVVKAIRQRL”, for which the “soluble fraction (log2)” value was -2.26.
Turning to “HMHADIAATVVATMRQLGVLGLPRNYEIFYEALSGTNRELSLAVVSLSNRPTQDDLDRIGRRFFA”, the “soluble fraction (log2)” value is -1.33.
Consider “HMHAEEIAREAKEALERGEEFHFAGITVRSEEALEFLEEWLRKFF”, for which the “soluble fraction (log2)” value is -1.02.
The value for “HMHALSVKFSDEAAKTLPYDILSALRDVLALDPRPGYSRDENKIYRFEYADYNISFSVKDKTLTVLSAEK” was -2.15.
As for “HMHAPRIEVVQIDPEKIGALIGPGGKNIRRITEVTGANLDIDEDNSGKIRVYASDSEAMNRALQEIDLVT”, the “soluble fraction (log2)” value was found to be 0.308.
Consider “HMHDHKTRLQELAAQRFGSAPSYLLTADGPAHDRRFHASVEVGGRSFGPGTGKSKKRAEQVAAHIAWDALS”, for which the “soluble fraction (log2)” value was 0.238.
On to “HMHDIPDITDLRPLRHTLGLTLAHAAQQLNTTTATISRLERGQHRNDHLATTYRTWLHTHPT”, for which the “soluble fraction (log2)” value is -0.291.
Consider “HMHDLSQQIVRYLIQQGGSSSLTDKSDPQEIYRTFKVSKKKYKQALGNLYKSKTIVITSGKIELVD”, for which the “soluble fraction (log2)” value is -3.03.
For “HMHDYNTIVGVIEMRDKNIPLTSIRQRYGIGYSGIDLILTRYKDSGLTLKEFLALDPSQAEELIYPPK”, the “soluble fraction (log2)” value was -0.961.
As to “HMHEHWDGSGFPKHLRGANIPLGARVIAVADTYDSITSSRAYRAGSTHEAAEREMRRVSGTQLDPE”, the “soluble fraction (log2)” value turned out to be 0.0624.
Next, “HMHEIVDTVLQVKQSVEADPLIAPALKNKEIVFQLNAKGVFQFKNAVIQVASALGISKNTVYMHLRNNK”: -3.04; “HMHETMGQIIKRLRKERGLTQESLAERLGVTFQAVSKWETDAGMPDVSQIVPLANAFGVRTDVLFGLEGRD”: -0.744.
In the case of “HMHEYSRIYQQQWWDNATGADAYHVIHSARSRAAQDPEAARALEYLEEQFRIRYGVRTEDFLGYLHD”, the “soluble fraction (log2)” value was -1.2.
The value for “HMHFENEETFVLPLVREGFSEQQQLEMVDRLLFDANTDNPRWIIDWMASELPSTQRELLLDLEKRLAEVRS” was -0.0441.
The value for “HMHFEWNELRKAINDFLAEQNMNEDKQLGPYFIQRDIVVPETGTEIDSKKFSEVFKHKVIMYLFDDAAKQ” was 0.0433; that for “HMHGESISVPDLRGQKMERMPAFLADKHLQFKVIDSLFDLEKNPGTVLEQDPAPNSKVKEGRTIYLTVNAQ” was -0.00257.
The value for “HMHGQGTYTSPDGTKYVGDWQDEKMHGQGTYTYPDGMKFVGEFKDNKPWNGTGYDKYGNVKATFSNGVGKS” was -0.0508; that for “HMHGSSSTVPPVKGLSFEQARLTLAENDLTVEISDSIYDRNARPGTVVESWPRAGSVVKQGRQVYVTVTAF” was -0.894; that for “HMHHDDHNQQEEIKEKLLAMVADGERHHVTEVRQLDEDWDMVTKVMKELMDEEQLLMDGSYLILSA” was 0.116.
Consider “HMHHSGLRQSQFDEISRQIRSLLEMESLSLQELKTRMEDVPEEQLTKVVSYLLSEEIIRQENGRLQ”, for which the “soluble fraction (log2)” value was 0.254.
The value for “HMHKAVVGPPNARKLAVTYGFKRWPALVFFRDGKYLGAVDGLRLWADLVREADEIMHSEPHYP” was 0.0613.
As to “HMHKFMEQNQDRRLSRMKELIGILSEAAKTYYQESREIMSNFQYDRMYDELLELEKETGVVMAGSPTQKV”, the “soluble fraction (log2)” value is -0.276.
For “HMHKKQEVQDSIDAAEEFMRASGVPAELITSKRAYAVKAIYADAVDKGTPDEIVKKDGMIVALISQMRS”, the “soluble fraction (log2)” value turned out to be 0.421.
The value for “HMHKLTIEEALNYKTPANAGGPYSGKPFRDIYDQRGKAAVISFAKYYLSKATPEDPMVEVYRTLLDGAMEL” was -1.61; that for “HMHKREKSFFETIYDDIPGIGKKRRVQLLSAYPTLDSLKSVTLEELKQIVPEESAKLILEKRDSR” was 0.0151.
Next, “HMHPARITATVRVGEGDLVDIEREAELGGPIHSKGVMILSSFLGARYARTVPLSLSASLVFEQSY”: 0.0581.
